Laboratory results: the nanobody polyreactivity screen of Harvey et al. (2022)

Experiment: yeast display, Sf9 membrane polyspecificity reagent, FACS + sequencing; frameworks hold sequencing errors
Outline: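 Nanobodies from a synthetic yeast display library (Saccharomyces cerevisiae BJ5465), induced 36–48 hours with galactose, were stained 1 hour at 4 °C with 10% biotinylated, detergent-solubilized Sf9 membrane reagent, enriched on streptavidin microbeads, then FACS-sorted. Anti-HA (expression) and streptavidin (reagent binding) fluorescence set low and high (top ~1%) gates. Polyreactivity labels come from the gate of origin. Genes were colony-PCR amplified, MiSeq 2 × 250 sequenced and filtered by CDR length.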

Sequence	polyreactivity (PSR sort gate)
QVQLVESGGGLVHAGGSLRLSCAASGGTLYRYAMGWYRQAPGKERELVAGISSSGGRTYYADSVKGRFTISRDNAKNTVYLQMNSLKPEDTAVYYCAKYWVSSYDYWGQGTQVTVSS	high polyreactivity
QVQLVESGGGLVQAGGSLRLSCAASGFTFRYYVMGWYRQAPGKERELVATITWGGGSTYYADSVKGRFTISRDNAKNTVYLQMNSLKPEDPAVYYCAASLKWGRGVLARVLWYNYWGQGTQVTVSS	low polyreactivity
QVQLVESGGGLVQAGGSLRLSCAASGSIFGPYAMGWYRQAPGKERELVAVISKRGGSTYYADSVKGRFTISRDNAKNTVYLQMNSLKPEDTAVYYCAADYDWDPYRIYYLASYDYWGQGTQVTVSS	high polyreactivity
QVQLVDSGGGLGQVGGSRRVSCAASGRTFWWYPMGWYRQSPGKERELVAAISRGSTNYADSVKGRFAISRDNAKNTVYLQMNSQKPEDTAVYYCAAYVVWLYGYDYGGQGTQVTVSS	low polyreactivity
QVQLVESGGGLVQAGGSLRLSCAASGFTFESYAMGWYRQAPGKERELVAAISWNGGSTYYADSVKGRFTISRDNAKNTVYLQMNSLKPADTAVYYCAARGRAPRFRRIGYDYWGQGTQVTVSS	high polyreactivity
QVQLVESGGGLVQAGGSLRLSCAASGLSSGFNVMGWYRQAPGKERELVAAIRSTGSPKYADSVKGRFTISRDNAKNTVYLQMNSLKPEDTAVYYCFRYSFYLNYWGQGTQVTVSS	high polyreactivity
QVQLVESGGGLVQAAGSLRISCAASGLIFNYYAMGWYRQAPGKERELVAAISKDGGSTYYADSVKGRFTISRDNAKNTVYLQMNSLKPEDTADFYCAARTFRISRMDYRGQGTQVTVSS	high polyreactivity
QVQLVESGGGLVQAGGSLRLSCAASGSTFDGYAMGWYRQAPGKERELVASISWDDVRTYYADSVKGRFTISRDNAKNTVYLQMNSLKPEDTAVYDCAKGDIEYFWSRIYGYWGQGTQVTVSS	low polyreactivity
QVHLVESGGGLVQAGGSLRLSCAASASTFLYYAMGWNRQPPGKERELVAVISWSGVSTYYADSVKGRFTSSRDNAKYTVYLQMNSLKPEDTAVYYCNTGNHYIRTYGYWGQGTQVTVSS	low polyreactivity
QVQLVESGGGLVQAGGSLRLSCAASGSTITYYTMGWYRQAPGKERELVAAISGSGGRTYYADSVKGRFTISRDNEKNTVYLQMNSLKPEDTAVYYCAAVYQLSRYDYWGQGTQVTVSS	high polyreactivity
QVQLVESGGGLVQAGGSLRLSCAASGSIFRFNAMGWYRQAPGKERELVAAISDSGGRTYYADSVKGRFTISRDNAKNTVYLQMNSLKPEETAVYYCNAYVHSQGGDYWGQGTQVTVSS	high polyreactivity
QVQLVESGGGLVQAGGSLRLSCAASGYIFSANAMGWYRQAPGKEREFVAAISSTGGSTYYADSVKGRFTISRDNAKNTVYLQMNSLKPEDTAVYYCAAYIRRYFHYDYWGQGTQVTVSS	high polyreactivity
HVQLVESGGGLVQAGGSLRLSCAASGRTFYIYAMGWYRKAPGKERELVAAITWSGGTTYYADSVKGRFTISRDNAKNPVYLQMTSLKPEDTAVYYCAADSYGFYLESYYWGQGTQVTVSS	low polyreactivity
QVQLVESGGGLVQAGGSLRLSCAASGSIFSGNAMGWYRQAPGKERELVAAITSGGSTYYADSVKGRFTISRDNAKNTVYLQMNSLKPEDTAVYYCAAVWYQYYYDRRHDYWGQGTQVTVSS	low polyreactivity
HVQQQESGGGLVQAGGSLRLSCAASGYISVFIGMGWYRQSPGKERELVASIAYGAITYYTDSVKGRFTMSRDYAKNTEYLQMNSLKPEDTAVYYCATRRYYRYYNFWYYYWGQGTQVTVSS	high polyreactivity
QVQLVESGGGLVQAGGSLRLSCAASGFILPIYAMGWYRQAPGKEREFVAAITWTGGSTYYADSVKGRFTISRDNANNTVYLQMNSLKPEDTAVYYCNAEGRSYYYIIYDFWGQGTQVTVSS	high polyreactivity
QVQLVESGGGLVQAGGSLRLSCAASGFTFTYYAMGWYRQAPGKERELVAAISRNGGDTYYADSGKGRFTISRDNAKNTVYLQMNSLKPEDSAVYYCNARTPTDSTHFDYWGQGTQVTVSS	low polyreactivity
